Experimental data published in patent US20240034816A1.

Key:
[1] = target: human CD16a (human FcγRIIIA), V isoform (human) (UniProt P08637); assay: SPR (Biacore T200), His-tagged huCD16a captured by anti-His antibody on CM5 chip, antibody injected at 5.8-3000 nmol/L, steady state fit
[2] = target: human neonatal Fc receptor (FcRn) (human) (UniProt P55899); assay: SPR, binding to huFcRn at pH 6.0

human CD16a (human FcγRIIIA), V isoform (human), sequence (P08637 17-208 F176V limits assumed): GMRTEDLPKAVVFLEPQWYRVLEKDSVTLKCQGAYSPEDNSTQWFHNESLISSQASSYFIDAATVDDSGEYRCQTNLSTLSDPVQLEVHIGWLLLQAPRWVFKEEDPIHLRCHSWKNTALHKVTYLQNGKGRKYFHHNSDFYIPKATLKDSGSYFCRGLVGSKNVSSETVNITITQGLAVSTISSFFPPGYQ

Kd [1]: 467 nM
Kd [2]: 154 nM
Substance: Adalimumab huIgG1 ctrl (antibody)
